Laboratory results from PMC8072984.

Tests used:
[1] = biological target: sapC-PUMA chimera (saposin C linked to the BH3 domain of PUMA); assay: NMR titration; [1H-15N]-SOFAST-HMQC at 298 K, 600 MHz; 15N-labelled chimera at 100 µM mixed with unlabeled Bcl-xL-ΔTM (stock 900 µM, pH 6.8) at chimera:Bcl-xL molar ratios 1:0, 1:0.5, 1:1, 1:2; 10% D2O; slow exchange, the upper limit of KD estimated from the chemical shift difference assuming diffusion-controlled kon
Bcl-xL (Homo sapiens) = Bcl-xL (Homo sapiens) (UniProt Q07817); assay: isothermal titration calorimetry; details: cited from earlier work
Chain of Bcl-xL (Homo sapiens) (Q07817 whole entry): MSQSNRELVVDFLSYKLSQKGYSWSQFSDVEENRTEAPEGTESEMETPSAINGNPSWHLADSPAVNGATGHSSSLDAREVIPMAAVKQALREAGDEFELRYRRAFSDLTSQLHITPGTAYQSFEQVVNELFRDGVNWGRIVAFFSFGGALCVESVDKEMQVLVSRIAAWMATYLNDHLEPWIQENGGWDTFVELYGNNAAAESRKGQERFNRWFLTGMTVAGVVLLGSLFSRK

Chain of PUMA BH3 (Q9BXH1 130-156): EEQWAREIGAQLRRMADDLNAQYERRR
Chain of sapC-PUMA chimera (saposin C linked to the BH3 domain of PUMA) (P07602 other isoform, or with tags, fused parts or gaps mutant): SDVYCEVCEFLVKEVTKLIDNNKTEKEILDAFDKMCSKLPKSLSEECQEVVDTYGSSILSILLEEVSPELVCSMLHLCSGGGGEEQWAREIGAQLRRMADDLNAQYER

stoichiometry N [1] | Substance | Kd (Bcl-xL (Homo sapiens))
1 | Human Bcl-xL-ΔTM (native amino acid sequence without the transmembrane domain) (domain or fragment) | 
 | PUMA BH3 (from UniProt Q9BXH1) | 3 nM
